Source: publication PMC11672308

B1: GLUT1: N45D (protein)
parent chain: MEPSSKKLTGRLMLAVGGAVLGSLQFGYNTGVINAPQKVIEEFYNQTWVHRYGESILPTTLTTLWSLSVAIFSVGGMIGSFSVGLFVNRFGRRNSMLMMNLLAFVSAVLMGFSKLGKSFEMLILGRFIIGVYCGLTTGFVPMYVGEVSPTALRGALGTLHQLGIVVGILIAQVFGLDSIMGNKDLWPLLLSIIFIPALLQCIVLPFCPESPRFLLINRNEENRAKSVLKKLRGTADVTHDLQEMKEESRQMMREKKVTILELFRSPAYRQPILIAVVLQLSQQLSGINAVFYYSTSIFEKAGVQQPVYATIGSGIVNTAFTVVSLFVVERAGRRTLHLIGLAGMAGCAILMTIALALLEQLPWMSYLSIVAIFGFVAFFEVGPGPIPWFIVAELFSQGPRPAAIAVAGFSNWTSNFIVGMCFQYVEQLCGPYVFIIFTVLLVLFFIFTYFKVPETKGRTFDEIASGFRQGGASQSDKTPEELFHPLGADSQV
B2: GLUT1: MGAT4A knockdown (protein)
parent chain: MEPSSKKLTGRLMLAVGGAVLGSLQFGYNTGVINAPQKVIEEFYNQTWVHRYGESILPTTLTTLWSLSVAIFSVGGMIGSFSVGLFVNRFGRRNSMLMMNLLAFVSAVLMGFSKLGKSFEMLILGRFIIGVYCGLTTGFVPMYVGEVSPTALRGALGTLHQLGIVVGILIAQVFGLDSIMGNKDLWPLLLSIIFIPALLQCIVLPFCPESPRFLLINRNEENRAKSVLKKLRGTADVTHDLQEMKEESRQMMREKKVTILELFRSPAYRQPILIAVVLQLSQQLSGINAVFYYSTSIFEKAGVQQPVYATIGSGIVNTAFTVVSLFVVERAGRRTLHLIGLAGMAGCAILMTIALALLEQLPWMSYLSIVAIFGFVAFFEVGPGPIPWFIVAELFSQGPRPAAIAVAGFSNWTSNFIVGMCFQYVEQLCGPYVFIIFTVLLVLFFIFTYFKVPETKGRTFDEIASGFRQGGASQSDKTPEELFHPLGADSQV

Key:
IF staining, 293T = settings: glycan lost; control: GLUT1-WT
[1] = IF co-staining, Ishikawa cells; settings: glycan changed form; control: shC with GAL9 overexpression

| Protein | localisation_or_trafficking (IF staining, 293T) | localisation_or_trafficking [1] |
| --- | --- | --- |
| B1 | decreases |  |
| B2 |  | decreases |
